Legend:
Experiment in all cases: cryo-EM structure; intact Bacillus PS3 ATP synthase in GDN, three rotational states at 2.9, 2.9 and 3.1 Å; focused refinement of the membrane-embedded region at 3.3 Å
[1] = target: the molecule itself
[2] = target: T1, Bacillus PS3 ATP synthase subunit γ (Bacillus PS3, UniProt P09222 5-286); details: both partners purified
T1 construct: ATP synthase subunit gamma, Bacillus PS3; source: E. coli strain DK8, plasmid pTR-ASDS; purified as part of the whole ATP synthase (GDN, HisTrap HP, Superose 6)
T1 sequence (P09222 5-286): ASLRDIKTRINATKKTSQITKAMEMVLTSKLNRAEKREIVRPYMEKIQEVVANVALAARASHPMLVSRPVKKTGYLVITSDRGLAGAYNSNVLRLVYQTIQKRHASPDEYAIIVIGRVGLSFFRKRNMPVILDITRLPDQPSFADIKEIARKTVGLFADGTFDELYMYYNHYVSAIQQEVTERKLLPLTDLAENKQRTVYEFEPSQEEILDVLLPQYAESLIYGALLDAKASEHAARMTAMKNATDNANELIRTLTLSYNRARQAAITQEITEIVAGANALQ

[3] = target: T2, Bacillus PS3 ATP synthase subunit α (Bacillus PS3, UniProt P09219 1-502); details: both partners purified
T2 construct: ATP synthase subunit alpha, Bacillus PS3; three copies in the complex (α3β3γδε ab2c10); Part of the intact complex α3β3γδε ab2c10; also called αDP; source: E. coli strain DK8, plasmid pTR-ASDS; purified as part of the whole ATP synthase (GDN, HisTrap HP, Superose 6)
T2 sequence (P09219 whole entry): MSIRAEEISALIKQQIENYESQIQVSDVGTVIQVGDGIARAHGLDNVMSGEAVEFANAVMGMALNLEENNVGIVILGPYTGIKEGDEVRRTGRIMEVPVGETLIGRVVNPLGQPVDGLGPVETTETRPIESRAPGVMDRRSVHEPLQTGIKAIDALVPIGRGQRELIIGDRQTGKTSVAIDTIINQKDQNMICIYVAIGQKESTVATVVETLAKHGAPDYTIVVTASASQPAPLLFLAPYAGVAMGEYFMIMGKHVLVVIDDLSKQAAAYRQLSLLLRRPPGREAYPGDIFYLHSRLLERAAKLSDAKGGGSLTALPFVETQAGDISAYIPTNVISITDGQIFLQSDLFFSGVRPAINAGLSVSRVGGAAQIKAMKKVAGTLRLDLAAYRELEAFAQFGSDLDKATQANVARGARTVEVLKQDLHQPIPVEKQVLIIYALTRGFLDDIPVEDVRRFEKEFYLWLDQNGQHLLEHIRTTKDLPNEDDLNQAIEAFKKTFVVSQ

binding result [2] | binding result [3] | Binder | stoichiometry N [1]
 |  | Bacillus PS3 ATP synthase subunit c (natural protein, UniProt P00845 1-72, looked up, ATP synthase subunit c, Bacillus PS3; ring of ten copies; also called c-ring; c10; source: E. coli strain DK8, plasmid pTR-ASDS; purified as part of the whole ATP synthase (GDN, HisTrap HP, Superose 6); copies: 10) MSLGVLAAAIAVGLGALGAGIGNGLIVSRTIEGIARQPELRPVLQTTMFIGVALVEALPIIGVVFSFIYLGR | 10
binds | binds | Bacillus PS3 ATP synthase subunit ε (natural protein, UniProt P07678 1-132, looked up, ATP synthase subunit epsilon, Bacillus PS3; source: E. coli strain DK8, plasmid pTR-ASDS; purified as part of the whole ATP synthase (GDN, HisTrap HP, Superose 6)) MKTIHVSVVTPDGPVYEDDVEMVSVKAKSGELGILPGHIPLVAPLEISAARLKKGGKTQYIAVSGGFLEVRPDNVTILAQAAERAEDIDVLRAKARKSGRTPLQSQQDDIDFKRAELALKRAMNRLSVAEMK | 

Reference: paper doi:10.1101/463968, “Structure of a bacterial ATP synthase” (bioRxiv, 2018)
